Reference: patent US20030171565A1

What was measured:
[1] = target: protein zero related (PZR), tyrosine-phosphorylated (human) (UniProt O95297); assay: immuno-depletion of extracts of pervanadate-treated cells with anti-SHP-2, Western blot of the supernatants
[2] = target: protein zero related (PZR), tyrosine-phosphorylated (human) (UniProt O95297); assay: immuno-depletion of extracts of pervanadate-treated cells with anti-PZR, Western blot of the supernatants

Sequence of protein zero related (PZR), tyrosine-phosphorylated (human) (O95297 36-269 limits assumed): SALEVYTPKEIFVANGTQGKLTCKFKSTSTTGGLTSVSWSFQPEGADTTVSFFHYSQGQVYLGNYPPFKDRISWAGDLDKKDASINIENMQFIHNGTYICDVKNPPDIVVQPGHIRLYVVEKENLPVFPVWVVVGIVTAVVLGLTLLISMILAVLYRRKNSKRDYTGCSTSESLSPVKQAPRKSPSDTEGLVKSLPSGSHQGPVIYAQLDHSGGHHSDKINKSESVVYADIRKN

loss of PZR from the extracts on immuno-depletion of SHP-2 [1]: > 90%
removal of SHP-2 from the extracts on immuno-depletion of PZR [2]: 50%
Substance: tyrosine phosphatase SHP-2, native full-length form (from UniProt Q06124 2-593) (enzyme)
